Laboratory results taken from patent publication US20100278929A1.

Target: RSV (Long strain) F protein on infectious virus (respiratory syncytial virus (Long strain)) (UniProt P12568)
Test: cell-based or functional assay

Sequence of RSV (Long strain) F protein on infectious virus (respiratory syncytial virus (Long strain)) (P12568 26-574): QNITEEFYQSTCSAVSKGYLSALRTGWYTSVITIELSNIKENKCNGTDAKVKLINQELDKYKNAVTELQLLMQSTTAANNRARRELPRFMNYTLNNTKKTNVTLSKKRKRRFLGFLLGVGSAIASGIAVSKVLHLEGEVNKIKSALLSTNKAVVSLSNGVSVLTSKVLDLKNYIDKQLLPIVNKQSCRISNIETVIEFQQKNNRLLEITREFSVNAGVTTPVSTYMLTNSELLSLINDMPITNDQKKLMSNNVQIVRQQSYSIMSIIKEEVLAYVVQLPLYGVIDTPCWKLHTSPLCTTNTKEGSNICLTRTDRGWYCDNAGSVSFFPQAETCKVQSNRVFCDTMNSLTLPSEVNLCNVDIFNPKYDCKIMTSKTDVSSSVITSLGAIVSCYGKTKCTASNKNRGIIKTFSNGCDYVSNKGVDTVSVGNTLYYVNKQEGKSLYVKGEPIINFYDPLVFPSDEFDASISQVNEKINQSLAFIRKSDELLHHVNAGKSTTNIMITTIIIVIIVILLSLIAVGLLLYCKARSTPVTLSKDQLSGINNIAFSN

Binder	Fold Difference (Control IC50), against palivizumab [fold]	Fold Difference (Curve IC50), against palivizumab [fold]
A17d4(1) monoclonal antibody (antibody, V domains shown) VH: QVTLRESGPALVKPTQTLTLTCTFSGFSLSTAGMSVGWIRQPPGKALEWLADIWWDGKKSYNPSLKDRLTISKDTSKNQVVLKVTNMDPADTATYYCARDMIFNFYFDVWGQGTTVTVSS VL: DIQMTQSPSTLSASVGDRVTITCLPSSRVGYMHWYQQKPGKAPKLLIYDTMYQSSGVPSRFSGSGSGTEFTLTISSLQPDDFATYYCFQGSGYPFTFGGGTKVEIK	15	13
P12f2 monoclonal antibody (antibody, V domains shown) VH: QVTLRESGPALVKPTQTLTLTCTFSGFSLSTPGMSVGWIRQPPGKALEWLADIWWDDKKHYNPSLKDRLTISKDTSKNQVVLKVTNMDPADTATYYCARDMIFNFYFDVWGQGTTVTVSS VL: DIQMTQSPSTLSASVGDRVTITCSLSSRVGYMHWYQQKPGKAPKLLIYDTFYLSSGVPSRFSGSGSGTEFTLTISSLQPDDFATYYCFQGSGYPFTFGGGTKVEIK	24	20
A8c7 monoclonal antibody (antibody, V domains shown) VH: QVTLRESGPALVKPTQTLTLTCTFSGFSLSTAGMSVGWIRQPPGKALEWLADIWWDDKKSYNPSLKDRLTISKDTSKNQVVLKVTNMDPADTATYYCARDMIFNWYFDVWGQGTTVTVSS VL: DIQMTQSPSTLSASVGDRVTITCSPSSRVGYMHWYQQKPGKAPKLLIYDTRYQSSGVPSRFSGSGSGTEFTLTISSLQPDDFATYYCFQGSGYPFTFGGGTKVEIK	14	13
P12f2 Fab fragment (Fab, V domains shown) VH: QVTLRESGPALVKPTQTLTLTCTFSGFSLSTPGMSVGWIRQPPGKALEWLADIWWDDKKHYNPSLKDRLTISKDTSKNQVVLKVTNMDPADTATYYCARDMIFNFYFDVWGQGTTVTVSS VL: DIQMTQSPSTLSASVGDRVTITCSLSSRVGYMHWYQQKPGKAPKLLIYDTFYLSSGVPSRFSGSGSGTEFTLTISSLQPDDFATYYCFQGSGYPFTFGGGTKVEIK	16	11
A8c7 Fab fragment (Fab, V domains shown) VH: QVTLRESGPALVKPTQTLTLTCTFSGFSLSTAGMSVGWIRQPPGKALEWLADIWWDDKKSYNPSLKDRLTISKDTSKNQVVLKVTNMDPADTATYYCARDMIFNWYFDVWGQGTTVTVSS VL: DIQMTQSPSTLSASVGDRVTITCSPSSRVGYMHWYQQKPGKAPKLLIYDTRYQSSGVPSRFSGSGSGTEFTLTISSLQPDDFATYYCFQGSGYPFTFGGGTKVEIK	34	3
A13c4 monoclonal antibody (antibody, V domains shown) VH: QVTLRESGPALVKPTQTLTLTCTFSGFSLSTAGMSVGWIRQPPGKALEWLADIWWDGKKSYNPSLKDRLTISKDTSKNQVVLKVTNMDPADTATYYCARDMIFNFYFDVWGQGTTVTVSS VL: DIQMTQSPSTLSASVGDRVTITCSLSSRVGYMHWYQQKPGKAPKLLIYDTMYQSSGVPSRFSGSGSGTEFTLTISSLQPDDFATYYCFQGSGYPFTFGGGTKVEIK	14	12
P12f4 monoclonal antibody (antibody, V domains shown) VH: QVTLRESGPALVKPTQTLTLTCTFSGFSLSTPGMSVGWIRQPPGKALEWLADIWWDGKKHYNPSLKDRLTISKDTSKNQVVLKVTNMDPADTATYYCARDMIFNFYFDVWGQGTTVTVSS VL: DIQMTQSPSTLSASVGDRVTITCSLSSRVGYMHWYQQKPGKAPKLLIYDTRGLPSGVPSRFSGSGSGTEFTLTISSLQPDDFATYYCFQGSGYPFTFGGGTKVEIK	23	19
A12a6 Fab fragment (Fab, V domains shown) VH: QVTLRESGPALVKPTQTLTLTCTFSGFSLSTAGMSVGWIRQPPGKALEWLADIWWDGKKDYNPSLKDRLTISKDTSKNQVVLKVTNMDPADTATYYCARDMIFNFYFDVWGQGTTVTVSS VL: DIQMTQSPSTLSASVGDRVTITCSASSRVGYMHWYQQKPGKAPKLLIYDTFKLSSGVPSRFSGSGSGTEFTLTISSLQPDDFATYYCFQGSGYPFTFGGGTKVEIK	17	16
A13c4 Fab fragment (Fab, V domains shown) VH: QVTLRESGPALVKPTQTLTLTCTFSGFSLSTAGMSVGWIRQPPGKALEWLADIWWDGKKSYNPSLKDRLTISKDTSKNQVVLKVTNMDPADTATYYCARDMIFNFYFDVWGQGTTVTVSS VL: DIQMTQSPSTLSASVGDRVTITCSLSSRVGYMHWYQQKPGKAPKLLIYDTMYQSSGVPSRFSGSGSGTEFTLTISSLQPDDFATYYCFQGSGYPFTFGGGTKVEIK	21	17
A13a11 Fab fragment (Fab, V domains shown) VH: QVTLRESGPALVKPTQTLTLTCTFSGFSLSTAGMSVGWIRQPPGKALEWLADIWWDDKKHYNPSLKDRLTISKDTSKNQVVLKVTNMDPADTATYYCARDMIFNWYFDVWGQGTTVTVSS VL: DIQMTQSPSTLSASVGDRVTITCSPSSRVGYMHWYQQKPGKAPKLLIYDTYRHSSGVPSRFSGSGSGTEFTLTISSLQPDDFATYYCFQGSGYPFTFGGGTKVEIK	5	4
A1h5 Fab fragment (Fab, V domains shown) VH: QVTLRESGPALVKPTQTLTLTCTFSGFSLSTAGMSVGWIRQPPGKALEWLADIWWDGKKHYNPSLKDRLTISKDTSKNQVVLKVTNMDPADTATYYCARDMIFNWYFDVWGQGTTVTVSS VL: DIQMTQSPSTLSASVGDRVTITCSLSSSVGYMHWYQQKPGKAPKLLIYDTFFHRSGVPSRFSGSGSGTEFTLTISSLQPDDFATYYCFQGSGYPFTFGGGTKVEIK	3	2
A4B4 monoclonal antibody (antibody, V domains shown) VH: QVTLRESGPALVKPTQTLTLTCTFSGFSLSTAGMSVGWIRQPPGKALEWLADIWWDDKKHYNPSLKDRLTISKDTSKNQVVLKVTNMDPADTATYYCARDMIFNFYFDVWGQGTTVTVSS VL: DIQMTQSPSTLSASVGDRVTITCSASSRVGYMHWYQQKPGKAPKLLIYDTFFLDSGVPSRFSGSGSGTEFTLTISSLQPDDFATYYCFQGSGYPFTFGGGTKVEIK	35	27
A17d4(1) Fab fragment (Fab, V domains shown) VH: QVTLRESGPALVKPTQTLTLTCTFSGFSLSTAGMSVGWIRQPPGKALEWLADIWWDGKKSYNPSLKDRLTISKDTSKNQVVLKVTNMDPADTATYYCARDMIFNFYFDVWGQGTTVTVSS VL: DIQMTQSPSTLSASVGDRVTITCLPSSRVGYMHWYQQKPGKAPKLLIYDTMYQSSGVPSRFSGSGSGTEFTLTISSLQPDDFATYYCFQGSGYPFTFGGGTKVEIK	31	25
A1e9 monoclonal antibody (antibody, V domains shown) VH: QVTLRESGPALVKPTQTLTLTCTFSGFSLSTAGMSVGWIRQPPGKALEWLADIWWDGKKHYNPSLKDRLTISKDTSKNQVVLKVTNMDPADTATYYCARDMIFNWYFDVWGQGTTVTVSS VL: DIQMTQSPSTLSASVGDRVTITCSLSSRVGYMHWYQQKPGKAPKLLIYDTFKLSSGVPSRFSGSGSGTEFTLTISSLQPDDFATYYCFQGSGYPFTFGGGTKVEIK	8	7
A12a6 monoclonal antibody (antibody, V domains shown) VH: QVTLRESGPALVKPTQTLTLTCTFSGFSLSTAGMSVGWIRQPPGKALEWLADIWWDGKKDYNPSLKDRLTISKDTSKNQVVLKVTNMDPADTATYYCARDMIFNFYFDVWGQGTTVTVSS VL: DIQMTQSPSTLSASVGDRVTITCSASSRVGYMHWYQQKPGKAPKLLIYDTFKLSSGVPSRFSGSGSGTEFTLTISSLQPDDFATYYCFQGSGYPFTFGGGTKVEIK	15	13
A1e9 Fab fragment (Fab, V domains shown) VH: QVTLRESGPALVKPTQTLTLTCTFSGFSLSTAGMSVGWIRQPPGKALEWLADIWWDGKKHYNPSLKDRLTISKDTSKNQVVLKVTNMDPADTATYYCARDMIFNWYFDVWGQGTTVTVSS VL: DIQMTQSPSTLSASVGDRVTITCSLSSRVGYMHWYQQKPGKAPKLLIYDTFKLSSGVPSRFSGSGSGTEFTLTISSLQPDDFATYYCFQGSGYPFTFGGGTKVEIK	4	3
P11d4 monoclonal antibody (antibody, V domains shown) VH: QVTLRESGPALVKPTQTLTLTCTFSGFSLSTPGMSVGWIRQPPGKALEWLADIWWDGKKHYNPSLKDRLTISKDTSKNQVVLKVTNMDPADTATYYCARDMIFNWYFDVWGQGTTVTVSS VL: DIQMTQSPSTLSASVGDRVTITCSPSSRVGYMHWYQQKPGKAPKLLIYDTMRLASGVPSRFSGSGSGTEFTLTISSLQPDDFATYYCFQGSGYPFTFGGGTKVEIK	19	21
P12f4 Fab fragment (Fab, V domains shown) VH: QVTLRESGPALVKPTQTLTLTCTFSGFSLSTPGMSVGWIRQPPGKALEWLADIWWDGKKHYNPSLKDRLTISKDTSKNQVVLKVTNMDPADTATYYCARDMIFNFYFDVWGQGTTVTVSS VL: DIQMTQSPSTLSASVGDRVTITCSLSSRVGYMHWYQQKPGKAPKLLIYDTRGLPSGVPSRFSGSGSGTEFTLTISSLQPDDFATYYCFQGSGYPFTFGGGTKVEIK	15	10
A4B4 Fab fragment (Fab, V domains shown) VH: QVTLRESGPALVKPTQTLTLTCTFSGFSLSTAGMSVGWIRQPPGKALEWLADIWWDDKKHYNPSLKDRLTISKDTSKNQVVLKVTNMDPADTATYYCARDMIFNFYFDVWGQGTTVTVSS VL: DIQMTQSPSTLSASVGDRVTITCSASSRVGYMHWYQQKPGKAPKLLIYDTFFLDSGVPSRFSGSGSGTEFTLTISSLQPDDFATYYCFQGSGYPFTFGGGTKVEIK	13	11
